We go through two proteins from US20100305304A1 (COMPLIX, published 2010).

Data set [1] deals with the molecule itself. Kind of data set: self-association of the peptide chains into a homotrimer; sedimentation equilibrium ultracentrifugation.
Data set [2] concerns the molecule itself. Kind of data set: self-association of the peptide chains into a homotrimer; CD thermal unfolding curve fitted to a monomer-trimer equilibrium. Here is the method: The said synthesized peptide was dissolved at a concentration of 292 microM in 20 mM phosphate buffer (PBS), 150 mM NaCl, pH 7.2. The CD spectra were measured between […], at 5 and 90 degrees Celsius (FIG. 3). The spectrum at 5 degrees Celsius was indicative of a high alpha-helical secondary structure content, in agreement with the expectation that all heptad regions, but not all of the flanking residues, would assemble as alpha-helical coiled coils.
To analyse whether the temperature-induced transition between helical and nonhelical states was reversible, a forward (up) and backward (down) thermal scan was performed on the same sample, by recording the CD signal at […] as a function of temperature at a scanning rate of about 1 degree Celsius per minute (FIG. 4). It was observed that the up and down scans almost perfectly coincided, thereby confirming the quantitative unfolding and refolding of the peptides in the sample.
FIG. 5 represents fitting of a theoretic equation for trimeric association to experimental data. The experimental data are taken from FIG. 4, curve labeled “UP”. The theoretic equations used are listed supra. The fitted parameters (fitting results) are listed at the right in FIG. 5. “Transit. T” corresponds to Tₜ, but is expressed here in degrees Celsius. The parameter “delta Cₚ” was kept constant at 3.0 kJ mol⁻¹ K⁻¹. […]

B1: Q2aI peptide (Ac-MSIEEIQKQIAAIQKQIAAIQKQIYRMTP-NH2) (peptide)
peptide: Ac-MSIEEIQKQIAAIQKQIAAIQKQIYRMTP-NH2
notes: Synthetic peptide; also called untagged peptide
For the protein B1, in data set [1], the binding result is recorded as “binds”.

B2: reference peptide Q2a (Ac-MSIEEIQKQQAAIQKQIAAIQKQIYRMTP-NH2) (peptide)
peptide: Ac-MSIEEIQKQQAAIQKQIAAIQKQIYRMTP-NH2
notes: Synthetic peptide; Three copies associate non-covalently into a parallel alpha-helical coiled coil; also called untagged peptide
For the protein B2, the binding result in data set [2] was “binds”.
